# Assay results: patent publication US20190000928A1
# Positions of bridges follow the written chain, without caps; N, C: chain ends. Non-standard residues stand in square brackets, D forms with d. No end group written: not given here. L5 = not defined here; L6 = not defined here
# B1: mTA 7: GLP-2 (G) and L6 (peptide)
# chain: HGDGSFSDEMKTILDNLKARDFINWLIQTKITD
# modifications: linker 11-18 via L6; reading uncertain; also: fatty acid attached to the staple, identity not given here
# B2: mTA 6: GLP-1/Glucagon (D) and L5 (peptide)
# chain: H[dS]QGTFTSDYSKYLDEKAAKEFIKWLLNGGPSSGAPPPS
# modifications: linker 17-24 via L5; reading uncertain; also: fatty acid attached to the staple, identity not given here, printed as HsQGTFTSDYSKYLDEXAAKEFIXWLLNGGPSSGAPPPS
# Key:
# Experiment in all cases: cell-based or functional assay
# [1] = target: human glucagon-like peptide 2 receptor (GLP-2R) (human) (UniProt O95838)
# human glucagon-like peptide 2 receptor (GLP-2R) (human), sequence (O95838 whole entry): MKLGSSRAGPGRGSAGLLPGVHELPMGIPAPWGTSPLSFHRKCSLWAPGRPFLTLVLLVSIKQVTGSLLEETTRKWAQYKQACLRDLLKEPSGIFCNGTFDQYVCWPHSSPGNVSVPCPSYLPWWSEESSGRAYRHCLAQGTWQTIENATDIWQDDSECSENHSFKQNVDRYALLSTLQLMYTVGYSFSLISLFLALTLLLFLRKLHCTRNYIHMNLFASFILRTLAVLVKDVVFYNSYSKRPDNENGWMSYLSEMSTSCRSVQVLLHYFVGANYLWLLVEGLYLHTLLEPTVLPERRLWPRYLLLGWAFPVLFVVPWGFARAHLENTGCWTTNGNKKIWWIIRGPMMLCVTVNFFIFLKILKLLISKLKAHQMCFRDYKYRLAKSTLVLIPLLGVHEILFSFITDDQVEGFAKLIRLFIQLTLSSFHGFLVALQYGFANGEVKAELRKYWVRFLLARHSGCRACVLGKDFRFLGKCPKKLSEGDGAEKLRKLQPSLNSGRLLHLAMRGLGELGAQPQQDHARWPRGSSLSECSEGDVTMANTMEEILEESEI
# [2] = target: human glucagon receptor (GCGR) (human) (UniProt P47871)
# human glucagon receptor (GCGR) (human), sequence (P47871 26-477): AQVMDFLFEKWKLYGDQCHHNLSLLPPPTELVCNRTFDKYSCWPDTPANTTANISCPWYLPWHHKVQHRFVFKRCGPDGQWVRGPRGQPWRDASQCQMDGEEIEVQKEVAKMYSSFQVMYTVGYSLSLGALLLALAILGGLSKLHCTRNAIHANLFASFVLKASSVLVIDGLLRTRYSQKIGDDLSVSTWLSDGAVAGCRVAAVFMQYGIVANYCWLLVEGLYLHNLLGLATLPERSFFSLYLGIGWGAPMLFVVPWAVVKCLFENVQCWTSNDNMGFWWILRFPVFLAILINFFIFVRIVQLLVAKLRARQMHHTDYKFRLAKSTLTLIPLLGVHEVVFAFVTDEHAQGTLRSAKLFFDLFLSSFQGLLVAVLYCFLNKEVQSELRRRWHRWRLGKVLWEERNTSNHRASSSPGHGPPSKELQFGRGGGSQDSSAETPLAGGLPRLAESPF
# [3] = target: human glucagon-like peptide 1 receptor (GLP-1R) (human) (UniProt P43220)
# human glucagon-like peptide 1 receptor (GLP-1R) (human), sequence (P43220 24-463): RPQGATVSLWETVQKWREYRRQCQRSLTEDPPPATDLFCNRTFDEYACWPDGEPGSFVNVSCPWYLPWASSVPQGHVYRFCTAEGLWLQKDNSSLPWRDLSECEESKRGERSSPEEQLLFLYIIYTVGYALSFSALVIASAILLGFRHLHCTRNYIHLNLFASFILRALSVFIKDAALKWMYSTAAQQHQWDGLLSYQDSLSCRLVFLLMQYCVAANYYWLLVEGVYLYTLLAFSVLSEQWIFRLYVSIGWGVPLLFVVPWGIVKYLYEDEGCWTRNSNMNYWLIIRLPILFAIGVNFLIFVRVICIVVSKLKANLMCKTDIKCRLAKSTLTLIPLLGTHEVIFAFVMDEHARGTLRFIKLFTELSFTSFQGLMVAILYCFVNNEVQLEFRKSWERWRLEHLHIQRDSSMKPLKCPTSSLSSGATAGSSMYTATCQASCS
Binder,"GLP-2R (EC50, nM); CRE luciferase reporter in HEK293-GLP-2R-CRE cells [1] [nM]","GCGR (EC50, nM); CRE luciferase reporter in HEK293-GCGR-CRE cells [2] [nM]","GLP-1R (EC50, nM); CRE luciferase reporter in HEK293-GLP-1R-CRE cells [3] [nM]"
B1,0.068,–,–
B2,–,0.62,0.03
